First the molecules themselves.
T1: His-tagged recombinant human CD45 (human, UniProt P08575 26-577, limits assumed)
T1 construct: His-tagged
T1 sequence (looked up): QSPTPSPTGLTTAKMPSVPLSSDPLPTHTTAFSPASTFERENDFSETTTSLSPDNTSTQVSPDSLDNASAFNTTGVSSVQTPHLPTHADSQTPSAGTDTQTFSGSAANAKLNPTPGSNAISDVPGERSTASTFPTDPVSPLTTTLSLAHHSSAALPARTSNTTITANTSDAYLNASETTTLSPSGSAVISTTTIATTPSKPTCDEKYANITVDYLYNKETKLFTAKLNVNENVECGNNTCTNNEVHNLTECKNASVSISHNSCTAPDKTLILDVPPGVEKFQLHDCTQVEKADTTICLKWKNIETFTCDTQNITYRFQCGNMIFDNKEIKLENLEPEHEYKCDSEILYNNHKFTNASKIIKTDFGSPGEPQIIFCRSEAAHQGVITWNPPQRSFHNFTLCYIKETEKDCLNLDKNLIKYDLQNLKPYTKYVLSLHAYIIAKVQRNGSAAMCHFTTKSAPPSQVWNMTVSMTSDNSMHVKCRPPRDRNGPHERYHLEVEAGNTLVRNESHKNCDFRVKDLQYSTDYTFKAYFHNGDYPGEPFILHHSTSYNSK

B1: L111-CD45 scFv (scFv)
scFv: DIQMTQSPSFLSASVGDRVTINCKASQNINKYLDWYQQKHGEAPKLLIHYTNNLHTGIPSRFSGSGSGTDYTLTISSLQPEDVATYFCLQHSSRWTFGGGTKLELKGGGGSGGGGSGGGGSGGGGEVQLVESGGDLVQPGRSLKLSCIASGFTFTNFWMTWIRQVSGKGLEWVASISSSGGSIYYPDSVKDRFTISRDNAKNTLYLQMNSLRSEDTATYYCVKLHYYSGGGDAWGQGTSVTVSSGGGGSGGGGSDYKDDDDKGGGGSC
notes: Full scFv-FLAG tagged with an extra C-terminal cys residue; also called L11I-CD45; LIII-CD45 scFv
B2: L112-CD45 scFv (scFv)
scFv: EVQLVESGGDLVQPGRSLKLSCVASGFTFNNYWMTWIRQVPGKGLEWVASISSSGGSIYYPDSVKDRFTISRDNAKNTLFLQMNSLRSEDTATYYCARLYYYSGGGDAWGQGTSVTVSSGGGGSGGGGSGGGGSGGGGDIQMTQSPSFLSASVGDRVTIICKASQDINKYLDWYQQKLGEAPKLLIYNTNNLHTGIPSRFSGSGSGTDYTLTISSLQPEDVATYFCLQHISRWTFGGGTKLELKGGGGSGGGGSDYKDDDDKGGGGSC
notes: Full scFv-FLAG tagged with an extra C-terminal cys residue
B3: L122-CD45 scFv (scFv)
scFv: EVKLLESGGGLVQPGGSLKLSCAASGFDFSRYWMSWVRQAPGKGLEWIGEINPTSSTINFTPSLKDKVFISRDNAKNTLYLQMSKVRSEDTALYYCARGNYYRYGDAMDYWGQGTSVTVSSAKGGGGSGGGGSGGGGSGGGGSDIALTQSPASLAVSLGQRATISCRASKSVSTSGYSYLHWYQQKPGQPPKLLIYLASNLESGVPARFSGSGSGTDFTLNIHPVEEEDAATYYCQHSRELPFTFGSGTKLEIKGGGGSGGGGSDYKDDDDKGGGGSC
notes: as for B2

Some results are limits rather than exact numbers.

One may read the Kd as the constant that tells how readily two partners part at equilibrium.

The target in this assay is T1, His-tagged recombinant human CD45. The experiment in a line: assay not given; the affinity ELISA is described in Example 22. The method, then: 20 nM His-tagged recombinant human receptors: CD117, CD45, CD46, CD133, and CD135, were immobilized onto nickel coated plates overnight at 4° C. in TBS buffer. Non-bound receptors were removed with three-washes of 1×TBS-T buffer. Blocking buffer was added to each well and incubated plate for 0.5 hr at room temperature with continuous shaking of 550 rpm. The plate was washed with 1X TBS-T. Serial dilutions of candidate ligands with concentrations ranged from 2 pM to 1 μM were added to each well and incubated for 1 hr at room temperature with continuous shaking of 550 rpm. After three washes of 1X TBS-T, horseradish peroxidase (HRP) enzyme liked FLAG antibody solution (1:200) was added to each well for 1 hr at room temperature with continuous shaking of 550 rpm. Chemiluminescent substrate was added and HRP enzymic activity was measured using an […]. The data was analyzed by non-linear regression to estimate binding affinity.
In general terms: An ELISA detects its analyte on a solid surface through an enzyme-linked reagent.
Consider B1, for which the equilibrium dissociation constant (Kd) is more than 10 nM.
Regarding B2, the Kd was more than 10 nM.
Turning to B3, the Kd was more than 10 nM.
